The target in experiment [1] is respiratory chain complex IV, human fibroblasts (human (endogenous in fibroblasts)) (UniProt P13073). As to the kind of experiment: native gel or EMSA; clear native electrophoresis (CNE), 6-15% gradient gels, of digitonin-solubilised (4 g/g protein) mitochondria of human fibroblasts (control and patients) and ρ0 cells; western blot, in-gel activity staining, 2D CNE/SDS PAGE.

Experiment [2] deals with ATP synthase (complex V), human fibroblasts (human (endogenous in fibroblasts)) (UniProt P25705). The description is as above.
For experiment [3], the target named is CV lacking the mtDNA-coded subunits (ρ0 cells) (human (endogenous in 143B TK- ρ0 cells)) (UniProt P25705). Described as above.
The target in experiment [4] is respiratory chain complex IV, rat heart (rat (endogenous in rat heart mitochondria)) (UniProt P10888). Nature of the experiment: native gel or EMSA; clear native electrophoresis (CNE), 6-15% gradient gels, of digitonin-solubilised (4 g/g protein) rat heart mitochondria; western blot, in-gel activity staining, 2D CNE/SDS PAGE and CNE/CNECBG.

“And” between values parts separate entries of the source, which are not always exact repeats. Equal values may be shown once.

Turning to “respiratory chain complex IV, human fibroblasts (from UniProt P13073 23-169; P00395 1-513)”, the stoichiometry N in experiment [1] came to 2.

Take “ATP synthase (complex V), human fibroblasts (from UniProt P25705 44-553; P06576 48-529; P36542 26-298; P00846 1-226; P03928 1-68)”: the stoichiometry N in experiment [2] was 2 and 4.

Consider “CV lacking the mtDNA-coded subunits (ρ0 cells) (from UniProt P25705 44-553; P06576 48-529; P36542 26-298) (complex)”, for which the stoichiometry N in experiment [3] was 2 and 4. In experiment [4], “respiratory chain complex IV, rat heart (from UniProt P10888 23-169; P05503 1-514)” showed a stoichiometry N of 2.

Values taken from publication PMC3742469.
